Measurements reported in PMC12631112.

Columns and labels:
[1] = target: serum IgM of WM patient 11 (human (endogenous in serum)); test: SEC + ELISA; serum diluted in PBS fractionated by HP-SEC on Superose 6 increase 10/300 GL in PBS, 0.5 mL/min; IgM, IgM-J-chain and IgM-CD5L measured by ELISA in each 250 µL fraction
[2] = target: IgM of patients with IgM MGUS and WM (n = 29), IgM-CD5L ELISA; test: ELISA; IgM-CD5L ELISA: anti-human IgM (MH-15-1) coated captures IgM from serum diluted in HPE buffer, room temperature; IgM-bound CD5L detected with a-CD5L-HRP (clone 5B5, 0.5 µg/mL); compared to total IgM
[3] = target: serum IgM of healthy donors (mu heavy and light chains) (human (endogenous in serum)); test: as above

percent of IgM molecules that contain CD5L [1]: 10%
ratio between IgM-CD5L complexes and total IgM [2]: 0.1
ratio between IgM-CD5L complexes and total IgM [3]: 1
B1: CD5-Like (CD5L) (natural protein)
chain: SPSGVRLVGGLHRCEGRVEVEQKGQWGTVCDDGWDIKDVAVLCRELGCGAASGTPSGILYEPPAEKEQKVLIQSVSCTGTEDTLAQCEQEEVYDCSHDEDAGASCENPESSFSPVPEGVRLADGPGHCKGRVEVKHQNQWYTVCQTGWSLRAAKVVCRQLGCGRAVLTQKRCNKHAYGRKPIWLSQMSCSGREATLQDCPSGPWGKNTCNHDEDTWVECEDPFDLRLVGGDNLCSGRLEVLHKGVWGSVCDDNWGEKEDQVVCKQLGCGKSLSPSFRDRKCYGPGVGRIWLDNVRCSGEEQSLEQCQHRFWGFHDCTHQEDVAVICSG
